“And” between values parts separate entries of the source, which are not always exact repeats. Identical values can stand only once.
Columns and labels:
[1] = biological target: human aminopeptidase N ectodomain, wild type (human) (UniProt P15144); experiment: SPR; BIAcore X-100, room temperature; hAPN/pAPN WT or mutant immobilised on CM5 chips via amine coupling; serially diluted PDCoV RBD WT or mutant flowed over in HEPES buffer (0.01 M HEPES, 0.15 M NaCl, 0.5% surfactant P20, 3 mM EDTA, pH 7.4); steady-state affinity model; each of two experiments listed
Chain of human aminopeptidase N ectodomain, wild type (human) (P15144 62-963): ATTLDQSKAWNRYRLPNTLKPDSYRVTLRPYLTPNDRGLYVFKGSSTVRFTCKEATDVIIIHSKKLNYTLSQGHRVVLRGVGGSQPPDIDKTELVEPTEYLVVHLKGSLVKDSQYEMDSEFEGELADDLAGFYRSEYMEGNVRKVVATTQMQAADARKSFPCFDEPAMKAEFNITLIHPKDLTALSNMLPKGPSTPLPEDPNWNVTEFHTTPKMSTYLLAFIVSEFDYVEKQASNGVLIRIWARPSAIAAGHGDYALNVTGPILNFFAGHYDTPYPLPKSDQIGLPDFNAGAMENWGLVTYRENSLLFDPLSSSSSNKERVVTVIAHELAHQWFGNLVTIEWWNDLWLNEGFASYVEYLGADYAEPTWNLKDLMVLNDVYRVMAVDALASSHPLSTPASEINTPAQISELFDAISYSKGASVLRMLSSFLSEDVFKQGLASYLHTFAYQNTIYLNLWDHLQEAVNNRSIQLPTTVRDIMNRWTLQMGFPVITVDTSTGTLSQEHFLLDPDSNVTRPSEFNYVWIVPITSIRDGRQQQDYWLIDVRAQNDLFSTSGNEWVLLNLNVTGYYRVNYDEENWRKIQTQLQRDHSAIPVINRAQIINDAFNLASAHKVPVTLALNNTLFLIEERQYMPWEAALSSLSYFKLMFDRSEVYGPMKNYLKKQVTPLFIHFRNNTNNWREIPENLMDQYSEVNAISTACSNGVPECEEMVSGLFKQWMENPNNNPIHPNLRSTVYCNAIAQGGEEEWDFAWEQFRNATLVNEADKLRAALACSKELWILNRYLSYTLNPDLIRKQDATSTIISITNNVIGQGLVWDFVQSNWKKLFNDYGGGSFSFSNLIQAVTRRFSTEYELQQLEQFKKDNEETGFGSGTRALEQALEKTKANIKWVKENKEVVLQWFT

[2] = biological target: porcine aminopeptidase N ectodomain, wild type (pig) (UniProt P15145); experiment: as above
Chain of porcine aminopeptidase N ectodomain, wild type (pig) (P15145 58-961): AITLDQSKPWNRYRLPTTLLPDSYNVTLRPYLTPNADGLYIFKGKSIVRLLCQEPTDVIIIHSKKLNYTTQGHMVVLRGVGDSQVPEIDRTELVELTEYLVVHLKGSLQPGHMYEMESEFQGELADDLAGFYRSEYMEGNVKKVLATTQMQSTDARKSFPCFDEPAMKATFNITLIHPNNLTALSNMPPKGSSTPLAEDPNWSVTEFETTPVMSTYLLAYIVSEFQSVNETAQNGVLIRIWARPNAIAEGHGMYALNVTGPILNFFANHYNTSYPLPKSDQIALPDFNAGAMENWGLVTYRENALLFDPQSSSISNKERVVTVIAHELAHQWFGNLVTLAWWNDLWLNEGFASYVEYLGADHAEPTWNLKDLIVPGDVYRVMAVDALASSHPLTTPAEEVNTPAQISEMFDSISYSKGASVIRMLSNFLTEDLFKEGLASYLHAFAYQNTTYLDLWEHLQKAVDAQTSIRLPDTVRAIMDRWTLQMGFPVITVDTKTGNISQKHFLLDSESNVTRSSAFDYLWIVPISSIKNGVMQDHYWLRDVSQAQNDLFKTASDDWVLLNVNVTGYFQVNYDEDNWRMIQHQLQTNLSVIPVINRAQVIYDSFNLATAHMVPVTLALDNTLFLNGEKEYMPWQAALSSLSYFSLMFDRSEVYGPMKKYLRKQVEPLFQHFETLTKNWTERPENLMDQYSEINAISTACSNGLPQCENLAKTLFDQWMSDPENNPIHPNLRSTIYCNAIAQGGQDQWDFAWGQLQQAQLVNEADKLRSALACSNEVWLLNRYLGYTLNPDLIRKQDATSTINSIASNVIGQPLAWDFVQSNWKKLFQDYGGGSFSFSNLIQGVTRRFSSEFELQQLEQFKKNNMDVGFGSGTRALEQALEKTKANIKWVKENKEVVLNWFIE

[3] = biological target: hAPN ectodomain E742A mutant (human) (UniProt P15144); experiment: SPR; BIAcore X-100, room temperature; hAPN/pAPN WT or mutant immobilised on CM5 chips by amine coupling; serially diluted PDCoV RBD WT or mutant flowed over in HEPES buffer (0.01 M HEPES, 0.15 M NaCl, 0.5% surfactant P20, 3 mM EDTA, pH 7.4); steady-state affinity model
Chain of hAPN ectodomain E742A mutant (human) (P15144 62-963 E742A): as the sequence (P15144 62-963) above, with E681A counted along it

[4] = biological target: hAPN ectodomain K379A mutant (human) (UniProt P15144); experiment: as above
Chain of hAPN ectodomain K379A mutant (human) (P15144 62-963 K379A): as the sequence (P15144 62-963) above, with K318A counted along it

[5] = biological target: hAPN ectodomain Y316A mutant (human) (UniProt P15144); experiment: as above
Chain of hAPN ectodomain Y316A mutant (human) (P15144 62-963 Y316A): as the sequence (P15144 62-963) above, with Y255A counted along it

[6] = biological target: human aminopeptidase N (hAPN) ectodomain, residues 62-963, wild type (UniProt P15144); experiment: as above
Chain of human aminopeptidase N (hAPN) ectodomain, residues 62-963, wild type (P15144 62-963): as the sequence (P15144 62-963) above

[7] = biological target: porcine aminopeptidase N (pAPN) ectodomain, residues 58-961, wild type (pig) (UniProt P15145); experiment: as above
Chain of porcine aminopeptidase N (pAPN) ectodomain, residues 58-961, wild type (pig) (P15145 58-961): as the sequence (P15145 58-961) above

[8] = biological target: human aminopeptidase N (hAPN) ectodomain, residues 62-963, wild type (UniProt P15144); experiment: SPR; settings: parent: 3.71 ± 0.05 µM
[9] = biological target: porcine aminopeptidase N (pAPN) ectodomain, residues 58-961, wild type (UniProt P15145); experiment: SPR; settings: parent: 44.24 ± 2.21 µM
Chain of porcine aminopeptidase N (pAPN) ectodomain, residues 58-961, wild type (P15145 58-961): as above

[10] = biological target: human aminopeptidase N ectodomain, wild type (human) (UniProt P15144); experiment: SPR; hAPN/pAPN WT or mutant immobilised on CM5 chips by amine coupling; serially diluted PDCoV RBD WT or mutant flowed over; BIAcore X-100, room temperature; 0.01 M HEPES, 0.15 M NaCl, 0.5% surfactant P20, 3 mM EDTA, pH 7.4; steady-state affinity model
[11] = biological target: porcine aminopeptidase N ectodomain, wild type (pig) (UniProt P15145); experiment: as above
[12] = biological target: human aminopeptidase N ectodomain, wild type (human) (UniProt P15144); experiment: as above; remark: listed apart in the source
[13] = biological target: porcine aminopeptidase N ectodomain, wild type (pig) (UniProt P15145); experiment: as above; remark: listed apart in the source
[14] = biological target: human aminopeptidase N ectodomain E426A (human) (UniProt P15144); experiment: as above
Chain of human aminopeptidase N ectodomain E426A (human) (P15144 62-963 E426A): as the sequence (P15144 62-963) above, with E365A counted along it

[15] = biological target: human aminopeptidase N ectodomain E742A (human) (UniProt P15144); experiment: as above
Chain of human aminopeptidase N ectodomain E742A (human) (P15144 62-963 E742A): as the sequence (P15144 62-963) above, with E681A counted along it

[16] = biological target: human aminopeptidase N ectodomain E745A (human) (UniProt P15144); experiment: as above
Chain of human aminopeptidase N ectodomain E745A (human) (P15144 62-963 E745A): as the sequence (P15144 62-963) above, with E684A counted along it

[17] = biological target: human aminopeptidase N ectodomain H789A (human) (UniProt P15144); experiment: as above
Chain of human aminopeptidase N ectodomain H789A (human) (P15144 62-963 H789A): as the sequence (P15144 62-963) above, with H728A counted along it

[18] = biological target: human aminopeptidase N ectodomain K379A (human) (UniProt P15144); experiment: as above
Chain of human aminopeptidase N ectodomain K379A (human) (P15144 62-963 K379A): as the sequence (P15144 62-963) above, with K318A counted along it

[19] = biological target: human aminopeptidase N ectodomain W429A (human) (UniProt P15144); experiment: as above
Chain of human aminopeptidase N ectodomain W429A (human) (P15144 62-963 W429A): as the sequence (P15144 62-963) above, with W368A counted along it

[20] = biological target: human aminopeptidase N ectodomain Y316A (human) (UniProt P15144); experiment: as above
Chain of human aminopeptidase N ectodomain Y316A (human) (P15144 62-963 Y316A): as the sequence (P15144 62-963) above, with Y255A counted along it

[21] = biological target: porcine aminopeptidase N ectodomain E421A (pig) (UniProt P15145); experiment: as above
Chain of porcine aminopeptidase N ectodomain E421A (pig) (P15145 58-961 E421A): as the sequence (P15145 58-961) above, with E364A counted along it

[22] = biological target: porcine aminopeptidase N ectodomain W424A (pig) (UniProt P15145); experiment: as above
Chain of porcine aminopeptidase N ectodomain W424A (pig) (P15145 58-961 W424A): as the sequence (P15145 58-961) above, with W367A counted along it

PDCoV RBD E320A (domain or fragment)
Kd [1]: 135 µM and 188 µM | Kd [2]: 279 µM and 220 µM

PDCoV RBD F318A (domain or fragment)
Kd [1]: 112 µM and 154 µM | Kd [2]: 817 µM and 511 µM

PDCoV RBD N397A (domain or fragment)
Kd [1]: 3.35 µM and 3.62 µM | Kd [2]: 34 µM and 53.8 µM

PDCoV RBD R322A (domain or fragment)
Kd [1]: 256 µM and 335 µM | Kd [2]: 454 µM and 553 µM

PDCoV RBD R357A (domain or fragment)
Kd [1]: 199 µM and 232 µM | Kd [2]: 27.7 µM and 60.5 µM

PDCoV RBD W396A (domain or fragment)
Kd [1]: 88000 µM

PDCoV RBD Y398A (domain or fragment)
Kd [1]: 309 µM and 730 µM

PDCoV spike (S) protein receptor binding domain (RBD), residues 300-419, wild type (domain or fragment)
fold decrease in affinity against wild-type hAPN [3]: 4 fold | Kd [4]: 100 µM | fold decrease in affinity against wild-type hAPN [5]: 10 fold | Kd [6]: 1 µM | fold lower affinity than to hAPN [7]: 10 fold

PDCoV spike (S) protein receptor binding domain (RBD), residues 300-419, wild type E320A
Kd [8]: 161 µM | Kd [9]: 249 µM

PDCoV spike (S) protein receptor binding domain (RBD), residues 300-419, wild type F318A
Kd [8]: 133 µM | Kd [9]: 664 µM

PDCoV spike (S) protein receptor binding domain (RBD), residues 300-419, wild type N397A
Kd [8]: 3.49 µM

PDCoV spike (S) protein receptor binding domain (RBD), residues 300-419, wild type R322A
Kd [8]: 295 µM | Kd [9]: 504 µM

PDCoV spike (S) protein receptor binding domain (RBD), residues 300-419, wild type R357A
Kd [8]: 216 µM

PDCoV spike (S) protein receptor binding domain (RBD), residues 300-419, wild type Y398A
Kd [8]: 520 µM

PDCoV spike protein receptor binding domain E320A (domain or fragment)
Kd [10]: 135 µM and 188 µM | Kd [11]: 279 µM and 220 µM

PDCoV spike protein receptor binding domain F318A (domain or fragment)
Kd [10]: 112 µM and 154 µM | Kd [11]: 817 µM and 511 µM

PDCoV spike protein receptor binding domain N397A (domain or fragment)
Kd [10]: 3.35 µM and 3.62 µM | Kd [11]: 34 µM and 53.8 µM

PDCoV spike protein receptor binding domain R322A (domain or fragment)
Kd [10]: 256 µM and 335 µM | Kd [11]: 454 µM and 553 µM

PDCoV spike protein receptor binding domain R357A (domain or fragment)
Kd [10]: 199 µM and 232 µM | Kd [11]: 27.7 µM and 60.5 µM

PDCoV spike protein receptor binding domain W396A (domain or fragment)
Kd [12]: > 1000 µM | Kd [13]: > 1000 µM | Kd [10]: 88000 µM

PDCoV spike protein receptor binding domain Y398A (domain or fragment)
Kd [13]: > 1000 µM | Kd [10]: 309 µM and 730 µM

PDCoV spike protein receptor binding domain, wild type (domain or fragment)
Kd [14]: 305 µM and 362 µM | Kd [15]: 14.3 µM and 13.2 µM | Kd [16]: 3.13 µM and 3 µM | Kd [17]: 6.47 µM and 6.03 µM | Kd [18]: 371 µM and 516 µM | Kd [19]: 158 µM and 97 µM | Kd [20]: 35.7 µM and 38.5 µM | Kd [21]: 103 µM and 146 µM | Kd [22]: 113 µM and 119 µM | Kd [10]: 3.76 µM and 3.66 µM | Kd [11]: 42 µM and 46.5 µM
